In publication PMC11322631:
Values joined by “and” are separate entries in the source; they are usually repeats but may differ in a detail not shown here. Equal entries are not always repeated.

Assays:
[1] = target: green-light absorbing proteorhodopsin A18L variant with uncleavable N-terminal signal peptide (marine γ-proteobacteria); assay: native gel or EMSA; BN-PAGE, NativePAGE 4-16% Bis-Tris gel, about 5 µg protein, 0.4% Cymal-5 and 0.25% Coomassie G-250 in the sample, run in ice water
[2] = target: green-light absorbing proteorhodopsin A18L variant with uncleavable N-terminal signal peptide (marine γ-proteobacteria); assay: cryo-EM structure; single particle cryo-EM of purified oligomers in 20 mM BTP-HCl pH 7.5, 150 mM NaCl, 0.25% Cymal-5; GPR-A18L at 4.2 mg/mL, PO at 4.0 mg/mL
[3] = target: proteoopsin, retinal-free N-terminally truncated green-light absorbing proteorhodopsin lacking the signal peptide (marine γ-proteobacteria); assay: as above

stoichiometry N [1] | stoichiometry N [2] | stoichiometry N [3] | Substance
5 and 6 | 5 and 6 |  | green-light absorbing proteorhodopsin A18L variant with uncleavable N-terminal signal peptide (natural protein)
 |  | 5 | proteoopsin, retinal-free N-terminally truncated green-light absorbing proteorhodopsin lacking the signal peptide (natural protein)
